Here are results for eight substances from US20110059095A1.

Where two headings read alike, the source gives them in different places.

The target in assay [1] is full length human PAR-2 (human) (UniProt P55085). Briefly: cell-based or functional assay.
For assay [2], the target named is monkey PAR-2 (monkey). The assay is described as follows: cell-based or functional assay.
Assay [3] deals with full length mouse PAR-2 (mouse) (UniProt P55086). The assay is described as follows: cell-based or functional assay.
In assay [4] the target is C-terminal biotinylated human PAR-2 14-mer peptide SEQ ID NO:886 (Asp-43 to Ala) (human). The assay is described as follows: BLI Exp2.
Assay [5] addresses C-terminal biotinylated human PAR-2 14-mer peptide SEQ ID NO:885 (Val-42 to Ala) (human). The assay is described as follows: BLI Exp2.
Assay [6] has as its target C-terminal biotinylated human PAR-2 14-mer peptide SEQ ID NO:887 (Val-42 and Asp-43 to Ala) (human). The assay is described as follows: BLI Exp2.
In assay [7] the target is C-terminal biotinylated human PAR-2 14-mer peptide SEQ ID NO:884 (…, wild-type) (human). The assay is described as follows: BLI Exp2.
Assay [8] has as its target full length human PAR-2 (human) (UniProt P55085). Briefly: cell ELISA, 10 ug/ml antibody.
Assay [9] concerns the target T1, Peptide B (human PAR-2), C-terminal biotinylated (Human).
T1 sequence (peptide, C-terminal biotin via G4S linker): SLIGKVDGTSHVTGGGGGS
The assay is described as follows: SPR, peptide immobilized. Background: Surface plasmon resonance follows binding to a sensor surface in real time, without labels.

Assay [10] addresses T2, Peptide B (human PAR-2), N-terminal biotinylated (Human).
T2 sequence (peptide, N-terminal biotin via G4S linker): GGGGSSLIGKVDGTSHVTG
Briefly: SPR, peptide immobilized.

Assay [11] addresses T1, Peptide B (human PAR-2), C-terminal biotinylated (Human). The assay is described as follows: SPR, peptide immobilized. The source holds these as a separate data set.
For assay [12], the target named is Peptide B (human PAR-2), unbiotinylated (Human). Briefly: SPR, antibody captured.

For orientation: Kd means the free concentration of one partner at which half of the binding sites on the other are occupied at equilibrium, for simple one-to-one binding.

Chain of full length human PAR-2 (human) (P55085 26-397 G138A limits assumed): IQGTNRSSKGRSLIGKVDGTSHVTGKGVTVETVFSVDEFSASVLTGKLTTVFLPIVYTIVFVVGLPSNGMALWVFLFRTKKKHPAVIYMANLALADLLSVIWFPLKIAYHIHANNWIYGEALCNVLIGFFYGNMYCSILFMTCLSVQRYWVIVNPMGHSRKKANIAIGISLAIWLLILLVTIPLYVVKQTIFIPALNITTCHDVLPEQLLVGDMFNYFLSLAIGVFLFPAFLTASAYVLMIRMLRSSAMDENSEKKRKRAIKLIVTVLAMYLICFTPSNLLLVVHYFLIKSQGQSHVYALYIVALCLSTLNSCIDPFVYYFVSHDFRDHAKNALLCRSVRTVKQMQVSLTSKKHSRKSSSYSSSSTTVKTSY
Chain of C-terminal biotinylated human PAR-2 14-mer peptide SEQ ID NO:885 (Val-42 to Ala) (human) (peptide, as listed by the source): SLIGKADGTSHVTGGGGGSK
Chain of C-terminal biotinylated human PAR-2 14-mer peptide SEQ ID NO:887 (Val-42 and Asp-43 to Ala) (human) (peptide, as listed by the source): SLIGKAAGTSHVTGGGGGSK
Chain of C-terminal biotinylated human PAR-2 14-mer peptide SEQ ID NO:886 (Asp-43 to Ala) (human) (peptide, as listed by the source): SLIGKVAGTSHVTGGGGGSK
Chain of C-terminal biotinylated human PAR-2 14-mer peptide SEQ ID NO:884 (…, wild-type) (human) (peptide, as listed by the source): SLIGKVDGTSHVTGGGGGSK
Chain of full length mouse PAR-2 (mouse) (P55086 other isoform, or with tags, fused parts or gaps limits assumed): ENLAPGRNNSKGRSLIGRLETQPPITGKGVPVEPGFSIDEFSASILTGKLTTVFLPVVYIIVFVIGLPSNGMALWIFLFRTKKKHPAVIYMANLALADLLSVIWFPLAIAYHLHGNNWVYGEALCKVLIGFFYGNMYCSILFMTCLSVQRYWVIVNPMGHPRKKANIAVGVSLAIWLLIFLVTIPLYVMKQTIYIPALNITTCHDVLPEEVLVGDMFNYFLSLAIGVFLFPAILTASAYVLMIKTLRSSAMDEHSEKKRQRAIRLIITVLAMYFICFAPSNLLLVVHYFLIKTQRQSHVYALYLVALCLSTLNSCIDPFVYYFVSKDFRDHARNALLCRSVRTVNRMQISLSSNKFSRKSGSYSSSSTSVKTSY
Chain of Human Kallikrein 5 (Q9Y337 67-293 limits assumed): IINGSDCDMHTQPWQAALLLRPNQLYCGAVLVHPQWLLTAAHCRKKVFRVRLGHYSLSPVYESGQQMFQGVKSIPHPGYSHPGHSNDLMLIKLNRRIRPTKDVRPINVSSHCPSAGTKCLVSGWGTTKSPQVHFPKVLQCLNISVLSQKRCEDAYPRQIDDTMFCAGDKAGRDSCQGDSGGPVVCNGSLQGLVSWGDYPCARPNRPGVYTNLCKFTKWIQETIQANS

For the substance “Human Kallikrein 5 (from UniProt Q9Y337 67-293) (enzyme)”, the EC50 of activator, NF-kB-luciferase in assay [1] worked out at 28 nM; in [2] it was 16.8 nM.
As to “Bovine Factor Xa (from UniProt P00743 41-492) (enzyme)”, the EC50 of activator, NF-kB-luciferase in [3] turned out to be 46.3 nM; in [1], 27.2 nM; in assay [2] it was 58.2 nM.
For the substance “Comparator 2, antibody having the heavy and light chain variable regions of the antibody referred to as Sam-11 (Molino et al. 1998)”, the % Rel Binding in assay [4] worked out at 88%; in assay [5], 120%; in [6], 87%; in assay [7] it was 100%. Further, the % Rel T1/2 stood at 27% in assay [4], 159% in assay [5], 27% in assay [6] and 100% in assay [7].
With “Non-Specific Control (non-PAR-2 specific control antibody)”, the IC50, calcium mobilization FLIPR, 100 nM Trypsin in [1] was greater than 1000 nM.
In assay [1], Tryptase (Table 22) (enzyme) yielded an EC50 of activator, NF-kB-luciferase of 61.1 nM.
In the case of “Human Factor Xa (from UniProt P00742 41-488) (enzyme)”, the values for the EC50 of activator, NF-kB-luciferase in assay [3] and in [1] were 78.7 nM and 46.3 nM, respectively.
Turning to “Sam11, commercially available mouse monoclonal antibody that binds human PAR-2 (Santa Cruz Biotechnology)”, the A450 ratio (293/D9/hPAR-2rec to 293/D9 cells) in [8] is 1.49. Besides, the equilibrium dissociation constant (Kd) turned out to be 0.99 nM in assay [9], 0.279 nM in assay [10], 0.935 nM in assay [11] and 149 nM in [12]. Further, the T1/2 in [9] amounted to 19 min; in assay [10], 32 min; in assay [11] it was 14 min; in assay [12] it was 0.1 min.
In turn, Human Pancreatic Trypsin (enzyme) gave an EC50 of activator, NF-kB-luciferase in [2] of 2.4 nM.
